The results in this text go back to US20230279089A1 (GlaxoSmithKline, published 2023).

The term Kd denotes the free concentration of one partner at which half of the binding sites on the other are occupied at equilibrium, for simple one-to-one binding.

Assay [1] addresses T1, Human BMP1 CD+CUB1 truncated antigen (human, UniProt P13497 121-434, limits assumed).
T1 construct: domain: CD+CUB1
T1 sequence (looked up): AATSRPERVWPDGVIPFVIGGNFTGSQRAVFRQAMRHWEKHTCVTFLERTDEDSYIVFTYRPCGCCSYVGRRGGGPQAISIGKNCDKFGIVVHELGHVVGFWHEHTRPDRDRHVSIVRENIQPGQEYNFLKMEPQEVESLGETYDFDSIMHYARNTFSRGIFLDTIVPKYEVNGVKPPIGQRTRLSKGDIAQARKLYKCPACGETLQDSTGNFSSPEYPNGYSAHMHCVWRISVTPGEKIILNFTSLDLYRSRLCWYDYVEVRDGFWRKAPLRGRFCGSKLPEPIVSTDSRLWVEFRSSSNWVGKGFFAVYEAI
In words: SPR, mAb captured on protein A, HBS-EP. On the procedure:
The 16 lead panel antibodies expressed in HEK cells were evaluated for binding to a truncated version of human BMP containing the catalytic domain and truncated domain (Human BMP1 CD+CUB1 truncated antigen) by SPR using BIACORE T200. HBS-EP+ buffer was used and the experiment run at 25° C. Protein A was immobilised to a CM5 sensor chip via amine coupling. The lead panel antibodies were captured onto protein A surface. Human BMP1 CD+CUB1 was then passed over the captured antibodies at various concentrations.

A further assay has as its target T2, Human TLL1 (human, UniProt O43897 148-1013, limits assumed).
T2 sequence (looked up): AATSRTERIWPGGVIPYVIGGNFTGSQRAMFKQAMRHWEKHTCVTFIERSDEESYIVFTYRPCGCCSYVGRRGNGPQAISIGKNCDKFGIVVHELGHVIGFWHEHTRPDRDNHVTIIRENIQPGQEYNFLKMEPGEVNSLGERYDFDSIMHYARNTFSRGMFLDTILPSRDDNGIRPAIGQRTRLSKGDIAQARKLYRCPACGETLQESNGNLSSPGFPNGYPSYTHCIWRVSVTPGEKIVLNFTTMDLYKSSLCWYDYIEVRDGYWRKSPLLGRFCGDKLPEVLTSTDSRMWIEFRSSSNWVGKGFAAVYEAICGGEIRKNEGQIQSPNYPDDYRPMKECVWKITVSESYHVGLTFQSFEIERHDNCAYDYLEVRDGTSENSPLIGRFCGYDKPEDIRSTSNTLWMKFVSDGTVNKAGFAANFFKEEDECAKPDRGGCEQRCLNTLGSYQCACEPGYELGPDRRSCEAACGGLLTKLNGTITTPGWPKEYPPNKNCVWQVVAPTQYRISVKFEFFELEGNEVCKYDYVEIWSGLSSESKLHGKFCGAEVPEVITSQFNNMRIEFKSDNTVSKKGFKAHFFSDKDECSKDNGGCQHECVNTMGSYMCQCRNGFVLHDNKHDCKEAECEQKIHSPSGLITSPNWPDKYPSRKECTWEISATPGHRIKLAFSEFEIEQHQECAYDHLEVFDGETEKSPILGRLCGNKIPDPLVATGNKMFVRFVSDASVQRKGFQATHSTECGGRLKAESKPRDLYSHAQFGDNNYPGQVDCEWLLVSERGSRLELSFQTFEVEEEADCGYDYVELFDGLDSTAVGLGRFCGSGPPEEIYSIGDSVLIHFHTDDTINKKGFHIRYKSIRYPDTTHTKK
Kind of assay: cell-based or functional assay.

Another assay has as its target T3, Human BMP1-1 (human, UniProt P13497-2 121-730, limits assumed).
T3 sequence (looked up): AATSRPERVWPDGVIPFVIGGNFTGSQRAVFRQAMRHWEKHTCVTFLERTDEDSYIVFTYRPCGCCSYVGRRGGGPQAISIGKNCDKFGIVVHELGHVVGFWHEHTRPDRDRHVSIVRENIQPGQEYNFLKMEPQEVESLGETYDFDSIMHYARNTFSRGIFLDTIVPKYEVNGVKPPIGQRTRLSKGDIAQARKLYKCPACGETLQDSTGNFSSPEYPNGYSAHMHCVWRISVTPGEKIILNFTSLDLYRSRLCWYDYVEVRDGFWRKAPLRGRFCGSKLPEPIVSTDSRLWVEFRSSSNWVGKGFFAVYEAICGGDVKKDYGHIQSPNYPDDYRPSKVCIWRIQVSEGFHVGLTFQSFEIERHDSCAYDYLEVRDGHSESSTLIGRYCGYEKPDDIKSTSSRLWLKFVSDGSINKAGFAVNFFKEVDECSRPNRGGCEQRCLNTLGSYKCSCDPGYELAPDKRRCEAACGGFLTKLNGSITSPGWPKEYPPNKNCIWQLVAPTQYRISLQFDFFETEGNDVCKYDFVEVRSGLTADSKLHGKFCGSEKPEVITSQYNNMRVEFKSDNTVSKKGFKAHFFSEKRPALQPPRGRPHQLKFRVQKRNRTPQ
In words: cell-based or functional assay.

B1: 13Y039-4B06-4373 (antibody, human IgG1, kappa, V domains shown)
VH: QVQLVQSGAEVKKPGASVKVSCKASGYTFRSYYMNWVRQAPGQGLEWMGIINPSSGETSYAQKFQGRVTMTRDTSTSTVYMELSSLRSEDTAVYYCARDTGELDGMNWYFDLWGRGTLVTVSS
VL: EIVLTQSPATLSLSPGERATLSCRASQSVSSYLAWYQQKPGQAPRLLIYDASNRATGIPARFSGSGSGTDFTLTISSLEPEDFAVYYCQQSDSWPPTFGGGTKVEIKR
notes: Fully human IgG1 LAGA, kappa; HEK expressed
Consider B1, for which the Kd in assay [1] amounted to 3.3 nM. In addition, the “IC50, FRET enzyme activity, 250 pM biotinylated huTLL-1” value with Human TLL1 was 40 pM. For the same molecule, the “IC50, FRET enzyme activity, 62.5 pM huBMP1” value with Human BMP1-1 amounted to 90 pM.

B2: 13Y039-4B06-4376 (antibody, human IgG1, kappa, V domains shown)
VH: QVQLVQSGAEVKKPGASVKVSCKASGYTFMGYYMNWVRQAPGQGLEWMGWINPSSGETNYAQKFQGRVTMTRDTSISTAYMELSRLRSDDTAVYYCARDTGELDGMNWYFDLWGRGTLVTVSS
VL: EIVLTQSPATLSLSPGERATLSCRASQSVSSYLAWYQQKPGQAPRLLIYDASNRATGIPARFSGSGSGTDFTLTISSLEPEDFAVYYCQQSDSWPPTFGGGTKVEIKR
notes: as for B1
In the case of B2, in assay [1], the Kd turned out to be 3.7 nM. Further, the “IC50, FRET enzyme activity, 250 pM biotinylated huTLL-1” value with Human TLL1 was 70 pM. Also, the “IC50, FRET enzyme activity, 62.5 pM huBMP1” value with Human BMP1-1 was 50 pM.
